Results reported in paper PMC8844851 (The Journal of Biological Chemistry, 2022).

Target: T1, C-terminally FLAG-tagged Cdc123 (S. cerevisiae, UniProt Q05791 1-360)
T1 construct: Cdc123 of S. cerevisiae; also called Cdc123^FLAG; source: S. cerevisiae, in lysate; not shown: FLAG, C-terminal, kept
T1 sequence (looked up): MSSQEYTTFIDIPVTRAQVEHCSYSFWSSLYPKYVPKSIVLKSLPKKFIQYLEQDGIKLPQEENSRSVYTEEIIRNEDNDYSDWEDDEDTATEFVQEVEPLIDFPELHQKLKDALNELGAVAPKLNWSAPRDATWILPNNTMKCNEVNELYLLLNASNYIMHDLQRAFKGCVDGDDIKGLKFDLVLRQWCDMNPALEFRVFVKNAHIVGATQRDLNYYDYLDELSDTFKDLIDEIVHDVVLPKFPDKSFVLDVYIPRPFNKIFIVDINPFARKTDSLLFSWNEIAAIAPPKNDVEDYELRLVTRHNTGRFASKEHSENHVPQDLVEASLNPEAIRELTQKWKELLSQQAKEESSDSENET
Test: co-IP; Cdc123-FLAG precipitated with anti-FLAG beads from yeast extract, 4 °C, 2 h; subunit signal in IP normalised to whole cell extract, Gcd11 set to 100% (n = 3); also SUI2/SUI2 against sui2Δ/SUI2 diploid strains (n = 4)
Details: partners not purified

B1: yeast eIF2γ (Gcd11) (natural protein, UniProt P32481 1-527, looked up)
chain: MSDLQDQEPSIIINGNLEPVGEPDIVEETEVVAQETQETQDADKPKKKVAFTGLEEDGETEEEKRKREFEEGGGLPEQPLNPDFSKLNPLSAEIINRQATINIGTIGHVAHGKSTVVRAISGVQTVRFKDELERNITIKLGYANAKIYKCQEPTCPEPDCYRSFKSDKEISPKCQRPGCPGRYKLVRHVSFVDCPGHDILMSTMLSGAAVMDAALLLIAGNESCPQPQTSEHLAAIEIMKLKHVIILQNKVDLMREESALEHQKSILKFIRGTIADGAPIVPISAQLKYNIDAVNEFIVKTIPVPPRDFMISPRLIVIRSFDVNKPGAEIEDLKGGVAGGSILNGVFKLGDEIEIRPGIVTKDDKGKIQCKPIFSNIVSLFAEQNDLKFAVPGGLIGVGTKVDPTLCRADRLVGQVVGAKGHLPNIYTDIEINYFLLRRLLGVKTDGQKQAKVRKLEPNEVLMVNIGSTATGARVVAVKADMARLQLTSPACTEINEKIALSRRIEKHWRLIGWATIKKGTTLEPIA
notes: Gcd11, eIF2 gamma subunit of S. cerevisiae, untagged endogenous protein detected with antiserum; source: endogenous, S. cerevisiae (W303 derivatives) lysate
In the case of B1, the “fold increase of coprecipitation in the sui2Δ/SUI2 strain over SUI2/SUI2” value is reported as 1.3 fold.
